From PMC7477632, “Aptamer-based surface-enhanced resonance Raman scattering assay on a paper fluidic platform for detection of cardiac troponin I”

Key:
[1] = target: T1, cardiac troponin I (cTnI) (UniProt P19429 2-210); test: sandwich SERRS lateral-flow assay; detector aptamer on AuNP; N1 on test line as capture; assay LOD 0.016 ng/ml; running buffer PBS with 0.25% Tween; sample pad pretreated with 0.05 M Tris pH 7.6, 0.15 M NaCl, 0.25% Triton X-100; assay temperature not stated; conditions: protein: commercial
T1 sequence (P19429 2-210): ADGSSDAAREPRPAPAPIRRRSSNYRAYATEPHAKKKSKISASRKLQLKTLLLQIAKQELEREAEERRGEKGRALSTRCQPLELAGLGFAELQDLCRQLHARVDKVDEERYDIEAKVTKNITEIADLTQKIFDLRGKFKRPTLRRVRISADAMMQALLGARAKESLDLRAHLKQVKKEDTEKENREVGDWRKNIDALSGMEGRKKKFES

[2] = target: T1, cardiac troponin I (cTnI); test: sandwich SERRS lateral-flow assay; capture aptamer on test line; N2 on AuNP as detector; assay LOD 0.016 ng/ml; running buffer PBS with 0.25% Tween; sample pad pretreated with 0.05 M Tris pH 7.6, 0.15 M NaCl, 0.25% Triton X-100; assay temperature not stated; conditions: protein: commercial

Binder | binding result [1] | binding result [2]
CGCATGCCAAACGTTGCCTCATAGTTCCCTCCCCGTGTCC (ssDNA, 5'-amine-spacer 18-spacer 18) [secondary cTnI aptamer] | binds | 
TTTTTTCGTGCAGTACGCCAACCTTTCTCATGCGCTGCCCCTCTTA (ssDNA, 5'-biotin) [primary cTnI aptamer] |  | binds
